From patent US5837843, “Modified protein C” (Oklahoma Medical Research Foundation, dated 1998)

B1: human protein S (other)
chain: ANSLLEETKQGNLERECIEELCNKEEAREVFENDPETDYFYPKYLVCLRSFQTGLFTAARQSTNAYPDLRSCVNAIPDQCSPLPCNEDGYMSCKDGKASFTCTCKPGWQGEKCEFDINECKDPSNINGGCSQICDNTPGSYHCSCKNGFVMLSNKKDCKDVDECSLKPSICGTAVCKNIPGDFECECPEGYRYNLKSKSCEDIDECSENMCAQLCVNYPGGYTCYCDGKKGFKLAQDQKSCEVVSVCLPLNLDTKYELLYLAEQFAGVVLYLKFRLPEISRFSAEFDFRTYDSEGVILYAESIDHSAWLLIALRGGKIEVQLKNEHTSKITTGGDVINNGLWNMVSVEELEHSISIKIAKEAVMDINKPGPLFKPENGLLETKVYFAGFPRKVESELIKPINPRLDGCIRSWNLMKQGASGIKEIIQEKQNKHCLVTVEKGSYYPGSGIAQFHIDYNNVSSAEGWHVNVTLNIRPSTGTGVMLALVSGNNTVPFAVSLVDSTSEKSQDILLSVENTVIYRIQALSLCSDQQSHLEFRVNRNNLELSTPLKIETISHEDLQRQLAVLDKAMKAKVATYLGGLPDVPFSATPVNAFYNGCMEVNINGVQLDLDEAISKHNDIRAHSCPSVWKKTKNS

How the values were obtained:
[1] = target: human activated protein C (APC), wild type (human, UniProt P04070, gamma carboxylglutamic acid (Gla) residues in the amino-terminal Gla domain (x in Sequence ID No. 2); Gla content 8.7±0.3 per mole for protein C); assay: cell-based or functional assay

| Molecule | factor Va inactivation (three stage assay, residual factor Va activity in prothrombinase) (times more active than wild type APC) (factor Va) | factor Va inactivation by APC with and without protein S [1] [fold] |
| --- | --- | --- |
| APC-PT Gla (activated chimeric protein C with the Gla domain and hydrophobic stack of prothrombin) (from UniProt P04070) (enzyme) | 5 |  |
| B1 |  | 2 |
